Test: yeast display, Sf9 membrane polyspecificity reagent, FACS + sequencing; frameworks hold sequencing errors
In short: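 After 36–48 hours of galactose induction, yeast (Saccharomyces cerevisiae BJ5465) displaying a synthetic nanobody library were stained at 4 °C for 1 hour with 10% biotinylated, detergent-solubilized Sf9 membrane reagent. Streptavidin microbeads enriched the stained cells before FACS sorting into low and high (top ~1%) gates on anti-HA and streptavidin fluorescence. Each clone's polyreactivity label reflects its gate of origin.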

Row | Sequence | polyreactivity (PSR sort gate)
1 | QVQLVESGGGLVQAGGSLRLSCAASGRILASNVMGWYRQAPGKEREFVASITYSGSSTYYADSVKGRFTISRDNAKNTVYLQMNSLKPEDTAVYYCATRYGYSDGDYWGQGTQVTVSS | low polyreactivity
2 | QVQLVESGGGLVQAGGSLRLSCAASGRILFGYAMGWYRQAPGKERELVADITSTGSTNYADSVKGRFTISRDNAKNTVYLQMNSLKPEDTAVYYCNARRESYYQRYRVDYWGQGTQVTVSS | low polyreactivity
3 | QVQLVESGGGLVQAGGSLRLSCAASGRILFHYAMGGSRPAPGKERELVAAITWRGGGTHYADSVKGRFTISRDNAKNTVYLQMNSLKPEDNAVYYCAADGWTYVYDYGYWGQGTQVTVSS | low polyreactivity
4 | QVQLVESGGGLVQAGGSLRLSCAASGRILFYYGMGWYRQAPGKERELVAAISKRGGSTYYADSVKGRFTISRDNAKNTVYLQMNSLKPEDTAVYYCAAVQPAWGNGYWGQGTQVTVSS | high polyreactivity
5 | QVQLVESGGGLVQAGGSLRLSCAASGRILGAYAMGWYRQPPGKERELVASISSGGRTYYADSVKGRFTISRDNAKNTVYLQMNSLKPEATAVYYCAKKKQLSVPASGYDYVYYWGQGTQVTVSS | high polyreactivity
6 | QVQLVESGGGLVQAGGSLRLSCAASGRILGNNVMGWYRQAPGKERELVAAITSSGGRTYYADSVKGRFTISRDNAKNTVYLQMNSLKPEDTAVYYCAAERRYYGKFNYWGQGTQVTVSS | high polyreactivity
7 | QVQLVESGGGLVQAGGSLRLSCAASGRILGQYVMGWYRQAPGKERELVASIRSGGVSTYYADSVKGRFTISRDNAKNTVYLQMNSLKPEDTAVYYCAKGSPGPRRYKFDYWGQGTQVTVSS | low polyreactivity
8 | QVQLVESGGGLVQAGGSLRLSCAASGRILGYYAMGWSRQAPGKEREFVAAITTRGGNTYYADSVKGRFTISRDNAKNTVYLQMNSLKPEDTAVYYCAAESYTYRDAPTYFTRMYYWGQGTQVTVSS | high polyreactivity
9 | QVQLVESGGGLVQAGGSLRLSCAASGRILHANAMGWYRQAPGKEREFVAAISVSGVSTYYADSVKGRFTISRDNAKNTVYLQMNSLKPEDTAVYYCNAETYSWYDYWGQGTQVTVSS | high polyreactivity
10 | QVQLVESGGGLVQAGGSLRLSCAASGRILKWNARGWYRHAPGKERELVAAISQSGGSTYYADSVKGRFTISRDNAKNTVYLQMNSLKPEDTAVYYCAARRGSKFWGQGTQVTVSS | low polyreactivity
11 | QVQLVESGGGLVQAGGSLRLSCAASGRILKYYDMGWYRQAPGKERELVAAISVSGTSTYYADSVKGRFTISRDNAKNTVYLQMNSLKPEDTAVYYCATATGRYSFDYWGQGTQVTVSS | low polyreactivity
12 | QVQLVESGGGLVQAGGSLRLSCAASGRILKYYDMGWYRQAPGKERELVAAISVSGTSTYYADSVKGRFTISRDNAMNTVYLQMNSLKPEVTAVYYCATATGRYSFDYWGQGTQVTVSS | low polyreactivity
13 | QVQLVESGGGLVQAGGSLRLSCAASGRILKYYDMGWYRQAPGKETELVAAISVSGTSTYYADSVKGRFTISRDNAKNTVYLQMNSLKPEDTAVYYCATATGRYSFDYWGKGTQVTVSS | low polyreactivity
14 | QVQLVESGGGLVQAGGSLRLSCAASGRILNSYAMGWYRQAPGKEREFVAAIRRSRGSPYYADSVKGRFTISRDNAKNTVYLQMNSLKPEETAVYYCAAGRRYSGSYDYWGQGTQVTVSS | high polyreactivity
15 | QVQLVESGGGLVQAGGSLRLSCAASGRILPSNAMGWYRQSPGKERELVATISSSGGDTYYADSVKGRFTISRDNAKNTVYLQMNSLKPEDTAGYYCAADSTWEGGYKYEYWGQGTQVTVSS | low polyreactivity
16 | QVQLVESGGGLVQAGGSLRLSCAASGRILPYYAMGWYRQAPGKERELVAAISYSGGSTYYADSVKGRFTLSRDNGKNTFYLQMNSLKPEDTAVYYCNARPVKASYVGYNYWGQGTQVTVSS | high polyreactivity
17 | QVQLVESGGGLVQAGGSLRLSCAASGRILQWYTMGWYRQAPGKERELVAAISGGGGRTYYADSVKGRFTNSRDIAKNTVYLQMNSLKPEDTAVYYCAKRGTGVYRVDYGYWGQGTQVTVSS | high polyreactivity
18 | QVQLVESGGGLVQAGGSLRLSCAASGRILRFYAMGWYRQAPGKERELVATISRSGGSTYYAESVKGRVTISRDNAKNTVDLQMNSLKPEDTAVDYCNAKFKGVSYKMDYWGQGTQVTVSS | high polyreactivity
19 | QVQLVESGGGLVQAGGSLRLSCAASGRILRGNAMGWYRQAPGKEREFFAAIRRSGGTSYYADSVKGRFTISRDNAKNTVYLQMNSLKPEDTAVYYCAATKYQTSGDRGYEHWGQGTQVTVSS | low polyreactivity
20 | QVQLVESGGGLVQAGGSLRLSCAASGRILRQYAMGWYRQAPGKESELVAAISRSGASTFYADSVKGRFTISRDNAKNTVYLQMNSLKPEDTAVYYCAAEHHAFTWAAINYGSWGQGTQVTVSS | high polyreactivity
21 | QVQLVESGGGLVQAGGSLRLSCAASGRILRSYAMGWYRPAPGKERELVAAISWRGGSTYYADSVKGRFTISRDNAKNTVYLQMNSLKPEDTAVYYCAKRSYYPARYDYWGQGTQVTVSS | high polyreactivity
22 | QVQLVESGGGLVQAGGSLRLSCAASGRILRYNAMGWYRQAPGKERELVASISGNGGSTYYADSVKGRFTISRDNAKYTVYLQMNSLKPEDTAVYYWGQGTQVTVSS | low polyreactivity
23 | QVQLVESGGGLVQAGGSLRLSCAASGRILSRYAMGWYRQAPGKERELVAAINKSGGSTYYADSVKGRFTISRDNAKNTVYLQMNSLKPEDTAVFYCNAVYYWYKGDYWGQGTQVTVSS | high polyreactivity
24 | QVQLVESGGGLVQAGGSLRLSCAASGRILSRYVMGWYRQAPGKERELVAAISGRATSTYYADSVKGRFTISRDNAKNTVYLQMNSLKPEDTAVYYCATGYKTYAVTLYDYWGQGTQVTVSS | high polyreactivity
25 | QVQLVESGGGLVQAGGSLRLSCAASGRILSYYAMGWYRQAPGKERELVAVIRRGASTYADSVKGRFTISRDNAKNTVYLQMNSLKPEDTAVYYCNAERVVGLSATKYGYWGQGTQVTVSS | low polyreactivity
26 | QVQLVESGGGLVQAGGSLRLSCAASGRILTFYGMGWYRQAPGKERELVAAISNGGSTYYADSVKGRFTSSRDNAKNTVYLQMNSLKPEDTAVYYCAKRILTAPRRNSGYDYWGPGTQVTVSS | low polyreactivity
27 | QVQLVESGGGLVQAGGSLRLSCAASGRILTGYAMGLYRQAPGKEREFVASITGSGAITNYADSVKGRFTITRDNAKNTVYLQMNSLKPEDTAVYYCARGYGWWLGYSSRYDYWGQGTQVTVSS | high polyreactivity
28 | QVQLVESGGGLVQAGGSLRLSCAASGRILTKYAMGWYRQAPGKERELVAAISDSGTGTYYADSVKGRFTISRDNAKNTVYLQMNSLKPEDTAVYYCHAQTRRTRTYHGHKYGYWGQGTQVTVSW | high polyreactivity
29 | QVQLVESGGGLVQAGGSLRLSCAASGRILTSNAMGWYRQAPGKERELVAAISWSGGSTYYADSVKGRFTISRDNAKNTVYLQMNSLKPEDTAVYYCNADDTPVPSIRFDYWGQGTQVTVSS | low polyreactivity
30 | QVQLVESGGGLVQAGGSLRLSCAASGRILTSYARGWYRQAPGKVRELVAAISYVCGSTDYADSVKGRFTISRDNAKNTVYLQMNSLKPEDTAVYYCAAKVRYYLSLRGSTTRRDDYYWGQGTQVTVSS | low polyreactivity

From the nanobody polyreactivity screen of Harvey et al. (2022)
